From patent US20260201039A1

Target: human CD28 in its native form displayed on the cell surface (human) (UniProt P10747)
Test: cell-based or functional assay

With TGN1412 (IgG4) (antibody) the IL2 secretion, PBMC of 20 donors on plate-coated protein, 72 h was under 80000 pg/mL.
